The record followed here is PMC2682205, “Cdc7p-Dbf4p Regulates Mitotic Exit by Inhibiting Polo Kinase” (PLoS Genetics, 2009).

The target of the experiment is T1, GST-PoloPBD (Polo amino acids 357–705) (budding yeast (S. cerevisiae), UniProt P32562 357-705).
T1 construct: Cdc5p (Polo), budding yeast; amino acids 357-705 with the polo-box domain; Cloned into pGEX-KG; also called GST-PBD; source: E. coli BL21, purified (glutathione-agarose, dialysis)
T1 sequence (looked up): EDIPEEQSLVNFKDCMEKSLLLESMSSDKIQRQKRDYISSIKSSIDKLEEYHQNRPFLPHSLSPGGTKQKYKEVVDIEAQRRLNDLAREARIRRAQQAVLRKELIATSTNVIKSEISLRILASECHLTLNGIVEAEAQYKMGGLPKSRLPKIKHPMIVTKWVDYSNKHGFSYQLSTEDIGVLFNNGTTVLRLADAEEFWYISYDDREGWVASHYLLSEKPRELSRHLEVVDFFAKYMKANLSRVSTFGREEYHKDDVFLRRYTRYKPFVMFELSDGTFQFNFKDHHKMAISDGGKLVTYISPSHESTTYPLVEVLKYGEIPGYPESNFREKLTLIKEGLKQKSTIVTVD
The experiment is described as follows: pull-down; GST or GST-PBD with Sumo or Sumo-Dbf4p on glutathione-agarose, 20 mM Tris-HCl pH 7.0, 300 mM NaCl, 0.5% NP-40, 1 mM EGTA, 1 hour at 4°C; blots with anti-GST-Polo PBD and anti-Smt3p. Particulars: both partners purified.

B1: Sumo-Dbf4p_(67–109) (domain or fragment, budding yeast (S. cerevisiae), UniProt P32325 66-109, looked up)
chain: QQQQHLHEKKRARIERARSIEGAVQVSKGTGLKNVEPRVTPKEL
notes: Dbf4p, budding yeast; Cloned into pSUMO (LifeSensors Inc.); also called Dbf4p PIR; source: E. coli BL21, purified (Ni++ column, imidazole gradient)
On to B1, for which the binding result is listed as “binds”.
